Results taken from the supplement of paper PMC10724198.
± gives the standard deviation of the averaged measurements.

Tested on: Saccharomyces cerevisiae
Experiment: protein stability index of tFT-peptide fusion (C-terminal peptide) (PSI (0-1 scale)); higher = more stable (slower turnover)
Settings: genetic background: wild type; temperature: 30 C
Procedure: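 Multiplexed protein stability (MPS) profiling in S. cerevisiae. Random 12-aa peptides (tFT-X12 library) are fused to the C-terminus of a sfGFP-mCherry tandem fluorescent timer, after mCherry and a GGGS linker. Cells are FACS-sorted into 8 mCherry/sfGFP bins and deep-sequenced. The protein stability index (PSI) is the read-weighted bin average, scaled from 0 (unstable) to 1 (stable). Only peptides with >10 reads are reported; cells were grown at 30 °C in SC-His with glucose.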
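Also: PSI is a weighted mean of sequencing reads over stability bins, variants kept only with over 10 reads, mCherry proximal and sfGFP distal, peptide attached via GGGS linker.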

Sequence	protein stability index
KKKKKKKTQTNK	0.692 ± 0.015
RESVLRVGCFQP	0.742 ± 0.072
GAVGLARVSASN	0.653 ± 0.028
KKGRTVEKKKGD	0.694 ± 0.0039
SFLTPFLLSYAT	0.636 ± 0.0038
GVLLCVDGSGGE	0.762 ± 0.054
RNTPFVCVRNGA	0.726 ± 0.16
FAPSAGGSLAGP	0.698 ± 0.033
LVGRRGVVGIVP	0.63 ± 0.075
HSPPSPHFPHHH	0.6609 ± 0.0043
PSRTTPARPPLT	0.662 ± 0.061
WQDTASNSNTTI	0.719 ± 0.024
YHSSHTGEFLFL	0.658 ± 0.053
CNGPRLFDKSPI	0.695 ± 0.017
SPSPPPRTPPPL	0.689 ± 0.022
QQISQIFHKQGK	0.851 ± 0.13
VSFGFHKWCHSR	0.638 ± 0.015
LSRTPLPLPPPS	0.705 ± 0.019
TLGLDPCCSYSR	0.752 ± 0.15
LVVLGVRGGGGG	0.701 ± 0.047
SALEVSPSNGSF	0.598 ± 0.015
PTTRSAPPPCIA	0.676 ± 0.03
PLCVFHYSSDDY	0.705 ± 0.054
CGQGRSVPFRSV	0.658 ± 0.0094
PFFLSFPPSALL	0.741 ± 0.021

Sequence	protein stability index
KQKKNKKKKQNR	0.699 ± 0.036
LSVPVGIRPGRC	0.702 ± 0.018
AEERATKNGARQ	0.67 ± 0.055
FFVVGEEFCVSV	0.649 ± 0.054
NFAIYPTLYKYD	0.667 ± 0.016
LIMLNNIENSSI	0.678 ± 0.01
PARPIPFPQPCY	0.538 ± 0.032
PCAFSLPPLQIP	0.7 ± 0.012
KKKKIKKKTKKE	0.667 ± 0.027
KQNKIIKKRKKK	0.659 ± 0.067
RALGVPPLSHLP	0.656 ± 0.036
VVGFVPVWRAGS	0.593 ± 0.031
WRNVEITSGSPH	0.672 ± 0.063
STDRPLRLHPGG	0.622 ± 0.041
PRSTATSPPAPP	0.6678 ± 0.0019
PLSTPPPLLLTP	0.719 ± 0.12
SDQEIKKSQCGG	0.659 ± 0.047
RSGLHGSGRPGG	0.715 ± 0.053
KGEKKNEEEERG	0.68 ± 0.01
RVGGPGNRGGVV	0.696 ± 0.058
HLLCPLSPYICH	0.681 ± 0.02
VLSCCTAVAYPF	0.593 ± 0.028
SSPLVHWFSYLS	0.682 ± 0.023
EGCYGVRGNTLH	0.612 ± 0.017
RGGVRGAIHSDL	0.7039 ± 0.0025

Sequence	protein stability index
KNWRMKKDHKQA	0.657 ± 0.024
LLRLTGRRHVGG	0.748 ± 0.2
PLPSARPPPLPS	0.685 ± 0.011
VCFSVSWSGLSC	0.681 ± 0.009
CSLGLGGRVAAL	0.697 ± 0.048
SGTQSGAFSRGQ	0.642 ± 0.081
PPRPPSPLPLPP	0.687 ± 0.016
KGGGMWRCCVWR	0.685 ± 0.0089
RHYLWAECGSSE	0.709 ± 0.017
VERIALIPASRQ	0.706 ± 0.035
HPVLGPNRVINI	0.71 ± 0.087
GGGGVVGVVRVG	0.658 ± 0.044
CVGTLSPKTVRT	0.697 ± 0.024
PSSEGHMEDTAA	0.684 ± 0.018
PDRSLASPPTTR	0.711 ± 0.069
PPRAPPPPVPPL	0.598 ± 0.03
GGFGEFTWAEAA	0.768 ± 0.0087
CAAVPLLASDVR	0.688 ± 0.011
LPPPLPVRSPLF	0.68 ± 0.012
LPPPSPSPLFPP	0.669 ± 0.052
FIVPLFPVFFSS	0.621 ± 0.05
GERGTRAERAGA	0.682 ± 0.032
RIKEYITDEKNR	0.674 ± 0.056
GCAVLGCLVLSA	0.655 ± 0.088
GKKKKKERKHGA	0.7351 ± 0.0055

Sequence	protein stability index
GGFARGRDGWQL	0.712 ± 0.0013
SRSGLSPTLPVF	0.699 ± 0.016
PFSPLPGPPPPP	0.733 ± 0.04
LFPLAPRRLAPP	0.628 ± 0.069
PRRPPPPRARFP	0.723 ± 0.026
RVGRCYPSIVRS	0.6522 ± 0.0042
PPPPVFPQPTPA	0.6425 ± 0.0023
TLPVKAGHWRLG	0.73084 ± 0.00065
EGEGQGWGGQGG	0.6994 ± 0.0021
GILVDGRGRGCR	0.735 ± 0.039
SRFHVLLPPPPS	0.674 ± 0.035
LGGGGVGGVRGV	0.6675 ± 0.0046
FDCMVRVRTTVV	0.544 ± 0.027
NRLPGNLKKKDN	0.687 ± 0.019
PGGLVVGAGRED	0.709 ± 0.033
PRHPRLPAPPAP	0.666 ± 0.034
GGVGWGMVEGWR	0.685 ± 0.057
PPPHPSPSRRSS	0.681 ± 0.029
PPAEPLRLHAHA	0.709 ± 0.054
IERFKKMRGVGS	0.801 ± 0.084
PSLLSHAPSPRR	0.682 ± 0.016
WAGGRHCKGVVV	0.681 ± 0.13
PFALADSDGDSK	0.683 ± 0.059
PSKMPNSTLRAE	0.682 ± 0.065
LIWHTLSTVIPF	0.657 ± 0.029

Sequence	protein stability index
FGTKSLPSLLAM	0.583 ± 0.034
RGTGRLDRLGLR	0.662 ± 0.043
PWGGVLGWGLVG	0.608 ± 0.016
SAPLVSLHLSPL	0.68 ± 0.011
PWWGCTLGGGWG	0.737 ± 0.063
SRWLLSLFTSSF	0.762 ± 0.052
TKLRHHKTQIVD	0.652 ± 0.059
SKKKITGGEAGH	0.677 ± 0.046
APPPPRAPTPPP	0.696 ± 0.011
APPPSPSPPPPL	0.712 ± 0.039
PPLPHQPSHPIS	0.672 ± 0.053
NINYETNKQTDR	0.668 ± 0.022
VNKNKKNVEYIK	0.657 ± 0.013
AGERQIRISING	0.691 ± 0.031
PPPRPSPPPSRP	0.684 ± 0.021
GLGLGLSGGAML	0.665 ± 0.069
SSSVSYFLHYCI	0.606 ± 0.038
EARRHTKHPGKI	0.753 ± 0.066
ACPGGPFALRSH	0.666 ± 0.029
FSFFVESFPASF	0.668 ± 0.036
DSDSVMPFERLM	0.659 ± 0.0095
GGFGVLGLGVVG	0.6963 ± 0.0058
PPLPRPSLPPLP	0.676 ± 0.054
PPPHPPPPASPP	0.653 ± 0.034
DFILVRGWADLR	0.616 ± 0.059

Sequence	protein stability index
PPPPPASTPASS	0.6808 ± 0.0013
TETAHNFPYCCD	0.676 ± 0.025
CKFPSLCVLSSV	0.654 ± 0.07
ISKEIKKRLNRY	0.63 ± 0.055
PLLPPALCPFPP	0.685 ± 0.029
YPALCSRFFAPS	0.711 ± 0.039
TTMNELPKSIKK	0.739 ± 0.042
LPFPPPIIATPP	0.665 ± 0.13
SRESTPDSHTMS	0.726 ± 0.065
VSDTRELSSDQI	0.656 ± 0.02
GGPGVKRPAMDP	0.688 ± 0.0071
RVLCYHFSPGVV	0.656 ± 0.057
DKATGARGKPPR	0.649 ± 0.13
PLLPSFPPPPAP	0.51 ± 0.014
RLIPYPPPLSLP	0.724 ± 0.021
DIGSSGRVGGLG	0.712 ± 0.031
RRSRPSSPYLPP	0.707 ± 0.0094
SLRTREGSSRRE	0.674 ± 0.23
AGGTRRRTGRRR	0.7019 ± 0.0024
HSWFSWSVVSEL	0.7308 ± 0.0018
GITAWMAHPRSV	0.706 ± 0.012
YSPFGKRLLPPC	0.702 ± 0.057
KKEQKSKTEMRK	0.7124 ± 0.0037
RRSGLTNLCSLH	0.746 ± 0.04
RYHPRSHVLGRD	0.682 ± 0.063

Sequence	protein stability index
PPPTDSQTTWHP	0.705 ± 0.018
GGCRSVGWGREG	0.676 ± 0.029
ALSDPDTVRLYA	0.7107 ± 0.0032
CSSVRRRSWCFS	0.846 ± 0.16
DCWAGWGLCGGG	0.723 ± 0.042
GIRHSNLGQALE	0.686 ± 0.11
SVCEWSRVGIRL	0.6476 ± 0.0056
ERNKKKNNQVNK	0.619 ± 0.054
DQATEPTPKPPD	0.643 ± 0.0079
PSFPHLPDFFIP	0.6779 ± 0.0019
TASAAKGAAPQQ	0.676 ± 0.016
RSANIINPHIFP	0.758 ± 0.014
GGRGAGSDVGSL	0.677 ± 0.04
VLSVGQVGRCVS	0.642 ± 0.043
PPPPPPPPPSFP	0.65 ± 0.0086
HPPLPPPLPGSP	0.761 ± 0.049
VFLSITHFESRV	0.723 ± 0.055
ISFFLLYFPPSY	0.59 ± 0.024
QGWDGSRRRPGL	0.706 ± 0.031
PARCRPSSPAPL	0.726 ± 0.016
SRRKMRILQIVD	0.623 ± 0.092
SEEAQRKRNTLK	0.6715 ± 0.0051
PPPLPPQTLTFC	0.729 ± 0.075
TEVRHMKGVAWW	0.6919 ± 0.0044
KKKKKNKKKTIK	0.6886 ± 0.0046

Sequence	protein stability index
RRRREKWSVVHR	0.758 ± 0.0096
ISEINQKGKNRE	0.675 ± 0.037
VEQISYATIAFV	0.608 ± 0.061
PPLPPPLSLPPP	0.657 ± 0.06
AVPAPPPTLPPI	0.685 ± 0.051
SSAGEVAFVAGT	0.689 ± 0.089
AHSSPMGYLPPF	0.693 ± 0.11
LNLWVVYRLLGV	0.599 ± 0.038
GARCHSKVTNAS	0.681 ± 0.036
PTHALLGCTCAN	0.681 ± 0.024
FRAPVLCPSYYS	0.7064 ± 0.0049
GRSGGGTGAPSR	0.637 ± 0.061
PRSPSPPRSPSP	0.66 ± 0.12
GGWCGGSGRGAN	0.63 ± 0.04
PPGPPPPPAPPL	0.724 ± 0.062
PPTSLRFRPPYC	0.682 ± 0.046
CCTPSFANVRDG	0.6998 ± 0.0027
PPALRSPCPSHP	0.747 ± 0.14
PSLPPPSPSTAP	0.713 ± 0.03
SLPFFPPRSPPS	0.725 ± 0.11
VLYCYPYLVLPP	0.678 ± 0.013
